From patent publication US20230322958A1 (Genentech, published 2023)

Experiments:
[1] = molecular target: T1, human Notch2 on U-87 MG cells (human, UniProt Q04721 26-2471); experiment: cell-based or functional assay
huNotch2-EGF6-10 = molecular target: T2, huNotch2-EGF6-10 (human, UniProt Q04721 219-418); experiment: SPR BIAcore T200, antibody captured on protein A, 37 C
T2 construct: also called human Notch2 EGF6-10
T2 sequence: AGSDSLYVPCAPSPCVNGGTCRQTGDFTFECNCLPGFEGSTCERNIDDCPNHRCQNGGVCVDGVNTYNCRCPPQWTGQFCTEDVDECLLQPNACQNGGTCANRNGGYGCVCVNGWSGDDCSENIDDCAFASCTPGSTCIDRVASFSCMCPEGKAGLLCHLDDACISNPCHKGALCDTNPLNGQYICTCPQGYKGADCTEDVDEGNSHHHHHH
Method: The binding affinities of the antibodies was determined by BIAcore™ T200 machine. Rabbit antibodies were expressed as chimeric antibodies with rabbit variable domains and human constant domains. Rat antibodies were expressed as chimeric antibodies with rat variable domains and human constant regions. Humanized antibodies were expressed in the human IgG1 backbone. For kinetics measurements, antibodies were captured on research grade protein A chip (GE Healthcare) to achieve approximately 300 RU. Ten-fold serial dilutions of huNotch2-EGF6-10 were injected in HBS-P buffer with additional 3 mM CaCl₂ at 37° C. with a flow rate of 100 μL/min. Association rates (ka) and dissociation rates (kd) were calculated using a 1:1 Langmuir binding model (BIAcore™ T200 Evaluation Software version 2.0). The equilibrium dissociation constant (KD) was calculated as the ratio kd/ka.

[2] = molecular target: T1, human Notch2 on U-87 MG cells; experiment: cell-based or functional assay; remark: listed apart in the source
[3] = molecular target: T1, human Notch2 on U-87 MG cells; experiment: KinExA equilibrium whole-cell analysis on Notch2-expressing U-87 cells
Method: After incubation, the cells were centrifuged and the supernatants, containing the free fraction of antibody or Fab construct, were removed without disturbing the cell pellets and transferred onto a KinExA 3200 instrument with autosampler (Sapidyne Instruments Inc). Each supernatant was flowed over a solid phase composed of polystyrene beads (#440176, Sapidyne Instruments Inc) coated with biotinylated goat anti-human Immunoglobulin G (IgG) heavy+light (H+L) (#109-065-003, Jackson ImmunoResearch Laboratories Inc.) or biotinylated Notch2 extracellular domain to capture the free antibody or Fab construct. […] The fluorescent signals were recorded and converted to a voltage signal that is directly proportional to the amount of free antibody or Fab construct in the equilibrated sample. Using the built in Equilibrium Whole Cell analysis method, the KinExA Pro software performed a least squares analysis on the measured data to fit optimal solutions for the KD and the activity of the free antibody or Fab construct to a curve representative of a 1:1 reversible bi-molecular interaction. […] A N-curve analysis was applied for the testing of the two concentrations of antibody or Fab construct to determine the KD on Notch2-expressing U-87 cells.
The binding kinetics were determined using a similar assay format as the one used for the equilibrium analysis, with the exception that measurements were collected “pre-equilibrium” and the binding signals were plotted as a function of time. For the KinExA direct method, anti-Notch2 antibody and Fab formats were incubated with Notch2-expressing U-87 cells at a fixed concentration (Table 12) and aliquots of the cell binding solution were collected at different time points to determine the fraction of free antibody or Fab format. The KinExA Pro software was then used to determine the association rate constant (Kₒₙ).

huNotch2-EGF4-7 = molecular target: T3, huNotch2-EGF4-7 (human); experiment: SPR BIAcore, antibody captured on protein A, 37 C
T3 chain: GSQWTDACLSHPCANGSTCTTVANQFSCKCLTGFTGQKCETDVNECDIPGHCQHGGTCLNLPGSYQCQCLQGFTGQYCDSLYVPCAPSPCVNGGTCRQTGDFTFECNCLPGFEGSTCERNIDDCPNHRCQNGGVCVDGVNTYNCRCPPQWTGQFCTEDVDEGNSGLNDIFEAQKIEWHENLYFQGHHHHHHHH
Method: (§1) Binding of the anti-Notch2 antibodies to Notch2 from additional species and to constructs comprising different EGF repeat regions was evaluated by BIAcore™. For this experiment, the antibodies with human constant regions were captured on a protein A chip to achieve approximately 200 RU. Ten-fold serial dilutions of various antigens were injected in HIBS-P buffer with additional 3 mM CaCl₂ at 37° C. with a flow rate of 100 μL/min.

huNotch2-EGF5-8 = molecular target: T4, huNotch2-EGF5-8 (human); experiment: SPR BIAcore, antibody captured on protein A, 37 C
T4 chain: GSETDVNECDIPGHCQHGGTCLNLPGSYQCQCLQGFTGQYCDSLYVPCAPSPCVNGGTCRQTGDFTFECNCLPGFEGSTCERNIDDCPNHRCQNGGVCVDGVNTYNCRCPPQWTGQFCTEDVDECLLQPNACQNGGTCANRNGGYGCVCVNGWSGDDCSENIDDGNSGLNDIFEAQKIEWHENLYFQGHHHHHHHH
Method: as §1

huNotch2-EGF7-9 = molecular target: T5, huNotch2-EGF7-9 (human); experiment: SPR BIAcore, antibody captured on protein A, 37 C
T5 chain: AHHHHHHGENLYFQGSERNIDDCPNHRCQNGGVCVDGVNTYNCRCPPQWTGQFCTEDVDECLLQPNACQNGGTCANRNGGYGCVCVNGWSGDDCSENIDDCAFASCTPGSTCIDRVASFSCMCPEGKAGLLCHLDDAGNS
Method: as §1

muNotch2-EGF6-12.K268R = molecular target: T6, muNotch2-EGF6-12.K268R (mouse); experiment: SPR BIAcore, antibody captured on protein A, 37 C
T6 chain: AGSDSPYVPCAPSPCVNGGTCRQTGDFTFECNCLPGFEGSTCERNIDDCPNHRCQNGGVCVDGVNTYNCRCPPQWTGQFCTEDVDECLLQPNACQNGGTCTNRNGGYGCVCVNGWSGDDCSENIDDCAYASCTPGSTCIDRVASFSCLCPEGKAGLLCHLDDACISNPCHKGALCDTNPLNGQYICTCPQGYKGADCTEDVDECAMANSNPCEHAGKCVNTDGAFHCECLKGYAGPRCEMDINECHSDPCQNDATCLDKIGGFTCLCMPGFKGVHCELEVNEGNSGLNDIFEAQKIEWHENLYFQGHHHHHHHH
Method: as §1

gpNotch2-EGF6-12 = molecular target: T7, gpNotch2-EGF6-12 (guinea pig); experiment: SPR BIAcore, antibody captured on protein A, 37 C
T7 construct: also called guinea pig Notch2 EGF6-12
T7 chain: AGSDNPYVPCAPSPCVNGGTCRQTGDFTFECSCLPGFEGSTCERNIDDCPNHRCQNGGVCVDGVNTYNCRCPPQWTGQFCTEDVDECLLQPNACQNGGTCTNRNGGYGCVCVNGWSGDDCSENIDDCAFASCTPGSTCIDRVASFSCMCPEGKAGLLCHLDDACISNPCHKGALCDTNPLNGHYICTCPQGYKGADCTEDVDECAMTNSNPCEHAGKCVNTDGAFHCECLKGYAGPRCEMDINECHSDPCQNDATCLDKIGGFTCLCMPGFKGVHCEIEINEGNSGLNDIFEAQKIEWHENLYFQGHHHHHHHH
Method: as §1

T1 sequence (Q04721 26-2471): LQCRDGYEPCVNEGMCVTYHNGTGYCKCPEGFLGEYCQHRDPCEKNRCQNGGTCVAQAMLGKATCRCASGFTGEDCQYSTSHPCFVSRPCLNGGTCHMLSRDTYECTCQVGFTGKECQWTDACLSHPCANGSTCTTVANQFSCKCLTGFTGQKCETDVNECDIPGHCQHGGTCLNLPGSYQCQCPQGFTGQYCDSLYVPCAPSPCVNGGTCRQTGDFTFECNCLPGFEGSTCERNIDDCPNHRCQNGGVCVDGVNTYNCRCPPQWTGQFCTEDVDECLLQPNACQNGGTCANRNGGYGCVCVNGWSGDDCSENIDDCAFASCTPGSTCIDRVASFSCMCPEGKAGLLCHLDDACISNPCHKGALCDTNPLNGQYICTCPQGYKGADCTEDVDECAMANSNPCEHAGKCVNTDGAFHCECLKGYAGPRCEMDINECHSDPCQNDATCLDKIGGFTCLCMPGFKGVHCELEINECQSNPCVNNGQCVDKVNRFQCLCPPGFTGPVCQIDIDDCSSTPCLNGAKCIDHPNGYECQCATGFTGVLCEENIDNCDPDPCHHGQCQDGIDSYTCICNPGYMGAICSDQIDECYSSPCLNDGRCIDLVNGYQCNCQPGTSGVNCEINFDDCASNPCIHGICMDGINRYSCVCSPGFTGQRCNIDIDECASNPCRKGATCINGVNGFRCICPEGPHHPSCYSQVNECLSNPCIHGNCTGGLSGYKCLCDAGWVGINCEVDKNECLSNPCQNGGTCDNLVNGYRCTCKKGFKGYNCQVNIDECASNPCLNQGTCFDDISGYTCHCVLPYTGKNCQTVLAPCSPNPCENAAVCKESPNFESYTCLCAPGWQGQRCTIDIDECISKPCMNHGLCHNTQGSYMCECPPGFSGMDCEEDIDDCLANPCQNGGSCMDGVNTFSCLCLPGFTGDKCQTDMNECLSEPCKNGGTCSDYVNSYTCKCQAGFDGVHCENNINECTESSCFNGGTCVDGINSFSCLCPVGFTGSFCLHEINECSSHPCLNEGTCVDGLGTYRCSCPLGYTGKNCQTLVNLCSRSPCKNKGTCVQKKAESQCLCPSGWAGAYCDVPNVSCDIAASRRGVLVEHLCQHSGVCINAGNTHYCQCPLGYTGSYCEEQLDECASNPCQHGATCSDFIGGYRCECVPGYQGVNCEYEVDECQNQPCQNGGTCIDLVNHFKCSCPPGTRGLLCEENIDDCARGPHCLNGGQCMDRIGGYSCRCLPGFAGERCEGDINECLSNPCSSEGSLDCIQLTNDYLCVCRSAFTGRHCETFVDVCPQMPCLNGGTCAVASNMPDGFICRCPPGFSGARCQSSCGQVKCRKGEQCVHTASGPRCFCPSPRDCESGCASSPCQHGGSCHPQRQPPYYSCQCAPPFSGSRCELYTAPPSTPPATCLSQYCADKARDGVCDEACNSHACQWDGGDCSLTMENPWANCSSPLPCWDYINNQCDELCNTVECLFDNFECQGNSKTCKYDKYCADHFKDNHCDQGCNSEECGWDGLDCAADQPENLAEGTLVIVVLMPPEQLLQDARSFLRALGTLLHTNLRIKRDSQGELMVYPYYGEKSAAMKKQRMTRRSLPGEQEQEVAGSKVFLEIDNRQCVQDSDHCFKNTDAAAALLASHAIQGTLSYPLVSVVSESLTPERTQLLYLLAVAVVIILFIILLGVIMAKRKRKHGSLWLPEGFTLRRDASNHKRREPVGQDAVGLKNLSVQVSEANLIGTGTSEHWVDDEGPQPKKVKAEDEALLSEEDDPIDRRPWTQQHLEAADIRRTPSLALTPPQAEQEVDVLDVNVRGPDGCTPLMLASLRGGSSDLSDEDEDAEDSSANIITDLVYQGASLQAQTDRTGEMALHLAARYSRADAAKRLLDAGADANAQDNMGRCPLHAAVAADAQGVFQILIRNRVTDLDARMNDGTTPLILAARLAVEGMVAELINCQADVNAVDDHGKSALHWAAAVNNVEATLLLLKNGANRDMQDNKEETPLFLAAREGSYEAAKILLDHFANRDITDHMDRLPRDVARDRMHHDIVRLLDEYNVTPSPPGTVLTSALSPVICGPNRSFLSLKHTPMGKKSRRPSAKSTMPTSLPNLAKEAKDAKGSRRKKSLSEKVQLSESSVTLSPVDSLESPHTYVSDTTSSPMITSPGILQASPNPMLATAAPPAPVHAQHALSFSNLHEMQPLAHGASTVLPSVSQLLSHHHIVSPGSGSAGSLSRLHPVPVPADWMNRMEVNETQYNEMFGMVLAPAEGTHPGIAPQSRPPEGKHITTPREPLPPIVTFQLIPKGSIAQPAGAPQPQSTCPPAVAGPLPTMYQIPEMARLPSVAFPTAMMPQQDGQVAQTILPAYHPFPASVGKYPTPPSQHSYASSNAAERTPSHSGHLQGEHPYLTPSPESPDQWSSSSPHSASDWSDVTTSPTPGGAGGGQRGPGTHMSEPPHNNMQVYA

Binder	Jagged1 IC50 [1] [nM]	Kd (huNotch2-EGF6-10) [nM]	koff (huNotch2-EGF6-10) [s⁻¹]	kon (huNotch2-EGF6-10) [M⁻¹ s⁻¹]	Kd [3] [nM]	also measured
rat.1B2 (rat/human chimeric anti-Notch2 antibody 1B2) (antibody, V domains shown, also called 1B2 Chimeric; chimeric 1B2) VH: EVKLVDYGGGLVQPGASLRLSCEVSGFTFSDFYMEWIRQAPGKGLEWIAASRNKANNFSIVYSASVKDRFTISRDTYKSILYLQMSTLKPEDTAVYYCSRDSGRWGLDAWGQGTSVIVSS VL: DIQMTQSPASLSASLGETVTIQCQTSEDIYSGLAWYHQKPGKSPQLLIYGASRLQDGVPSRFTGSGSGTQYSLKISSMQTEDEGVYFCQQGFKYPLTFGSGTKLEIK	12.5	5.21	0.000943	181000	–	–
rb.2338 (rabbit/human chimeric anti-Notch2 antibody 2338) (antibody, V domains shown) VH: QSLEESGGDLVKPGASLTLTCTASGFSFSSGYDMCWVRQAPGKGLEWIACIYAGSEGFTYYASWAKGRFTISKSSSTTVTLQMTSLTVADTATYFCARWTDSDGSNLWGPGTLVTVSS VL: DVVMTQTPASVEAAVGGTVTIKCQASQSISSYLAWYQQKPGQPPKLLIYRASKLASGVPSRFSGRGSGTQFTLTISDLECADAATYYCQSNSYGNNWVGGFGGGTKVEIK	3.53	–	–	–	–	–
1B2.v104.huFab.LC_K149C.dPEG_trimer (other, engineered Cys (K149C) joined through maleimide to Tri(Mal-PEG2-amide)-amine, also called 1B2.v104 Fab trimer; aN2.1B2.Fab-trimer) heavy: EVQLVESGGGLVQPGGSLKLSCAVSGFTFSDFYMEWVRQASGKGLEWVAAQRNKANDFSIVYSASVKDRFTISRDDSKSTLYLQMNSLKTEDTAVYYCSRDGGKLALDAWGQGTLVTVSSASTKGPSVFPLAPSSKSTSGGTAALGCLVKDYFPEPVTVSWNSGALTSGVHTFPAVLQSSGLYSLSSVVTVPSSSLGTQTYICNVNHKPSNTKVDKKVEPKSCD light: DIQMTQSPSSVSASVGDRVTITCQTSEDIYSGLAWYQQKPGKSPKLLIYGASRLQDGVPSRFSGSGSGTDYTLTISSLQPEDFATYYCQQGFKYPLTFGGGTKVEIKRTVAAPSVFIFPPSDEQLKSGTASVVCLLNNFYPREAKVQWCVDNALQSGNSQESVTEQDSKDSTYSLSSTLTLSKADYEKHKVYACEVTHQGLSSPVTKSFNRGEC	–	–	–	–	0.0335	DLL Inhibition (IC50) [2]: > 700 nM; Jag1 Inhibition (IC50) [2]: 0.5 nM
rb.2621 (rabbit/human chimeric anti-Notch2 antibody 2621) (antibody, V domains shown) VH: QSLEESGGGLVQPGASLTLTCTASGFSFSSGYDMCWVRQAPGKGLEWIACIVTVSGNTYYASWAKGRFTISKTSSTTVTLQMTSLTAADTATYFCARDGGFTDTWYFHLWGPGTLVTVSS VL: AYDMTQTPASVEVAVGGTVTIKCQASESIGSYLAWYQQKPGQPPKLLIYRASTLASGVPSRFKGSGSGTEFTLTISGVQCDDAATYYCQQTYSGAGVDNLFGGGTKVEIK	0.667	–	–	–	–	–
hu1B2.L1H1.DFS (antibody, V domains shown, Human IgG1 backbone; also called hu1B2.v1.DFS) VH: EVQLVESGGGLVQPGGSLKLSCAVSGFTFSDFYMEWIRQASGKGLEWIAASRNKANDFSIVYSASVKDRFTISRDTSKSTLYLQMNSLKTEDTAVYYCSRDSGRWGLDAWGQGTLVTVSS VL: DIQMTQSPSSVSASVGDRVTITCQTSEDIYSGLAWYQQKPGKSPKLLIYGASRLQDGVPSRFSGSGSGTDYTLTISSLQPEDFATYFCQQGFKYPLTFGGGTKVEIK	7.9	5.15	0.00116	226000	–	–
1B2.v104.huFab.LC_K149C.MMTS_capped (Fab, V domains shown, engineered Cys (K149C) capped with MMTS, Monovalent Fab used in the KinExA experiments; also called Monovalent Fab) VH: EVQLVESGGGLVQPGGSLKLSCAVSGFTFSDFYMEWVRQASGKGLEWVAAQRNKANDFSIVYSASVKDRFTISRDDSKSTLYLQMNSLKTEDTAVYYCSRDGGKLALDAWGQGTLVTVSS VL: DIQMTQSPSSVSASVGDRVTITCQTSEDIYSGLAWYQQKPGKSPKLLIYGASRLQDGVPSRFSGSGSGTDYTLTISSLQPEDFATYYCQQGFKYPLTFGGGTKVEIKR	–	–	–	–	1.98	–
hu1B2.v102 (antibody, V domains shown, Human IgG1 backbone) VH: EVQLVESGGGLVQPGGSLKLSCAVSGFTFSDFYMEWVRQASGKGLEWVAAQRNKANDFSIVYSASVKDRFTISRDDSKSTLYLQMNSLKTEDTAVYYCSRDGGRLALDAWGQGTLVTVSS VL: DIQMTQSPSSVSASVGDRVTITCQTSEDIYSGLAWYQQKPGKSPKLLIYGASRLQDGVPSRFSGSGSGTDYTLTISSLQPEDFATYYCQQGFKYPLTFGGGTKVEIK	1.59	3.37	0.00131	387000	–	binding result (huNotch2-EGF4-7): binds; binding result (huNotch2-EGF5-8): binds; binding result (huNotch2-EGF7-9): binds; binding result (muNotch2-EGF6-12.K268R): binds; binding result (gpNotch2-EGF6-12): binds
1B2.v104.Fab-huIgG1.N297G (antibody, V domains shown, Tetravalent Fab-IgG format, human IgG1 N297G; also called Tetravalent Fab-IgG; 1B2.v104 Fab-IgG) VH: EVQLVESGGGLVQPGGSLKLSCAVSGFTFSDFYMEWVRQASGKGLEWVAAQRNKANDFSIVYSASVKDRFTISRDDSKSTLYLQMNSLKTEDTAVYYCSRDGGKLALDAWGQGTLVTVSS VL: DIQMTQSPSSVSASVGDRVTITCQTSEDIYSGLAWYQQKPGKSPKLLIYGASRLQDGVPSRFSGSGSGTDYTLTISSLQPEDFATYYCQQGFKYPLTFGGGTKVEIK	–	–	–	–	0.195	–
1B2.v104.huIgG1.N297G (antibody, V domains shown, Human IgG1 with N297G; also called Bivalent IgG antibody; 1B2.v104 IgG) VH: EVQLVESGGGLVQPGGSLKLSCAVSGFTFSDFYMEWVRQASGKGLEWVAAQRNKANDFSIVYSASVKDRFTISRDDSKSTLYLQMNSLKTEDTAVYYCSRDGGKLALDAWGQGTLVTVSS VL: DIQMTQSPSSVSASVGDRVTITCQTSEDIYSGLAWYQQKPGKSPKLLIYGASRLQDGVPSRFSGSGSGTDYTLTISSLQPEDFATYYCQQGFKYPLTFGGGTKVEIK	–	–	–	–	0.0353	–
